In experiment [1] the target is T1, Calmodulin (CaM) (mammalian, UniProt P0DP23 1-149).
T1 construct: also called free CaM; CaM alone
In words: co-expression in E. coli, GST pull-down and anion exchange chromatography.

The target in experiment [2] is T1, Calmodulin (CaM). In words: periplasmic-extract ELISA, 1:100 extract on 0.1 ug coated Ca2+CaM or apoCaM, anti-HA detection; positive above absorbance 2.

B1: CTNav1.9T (other)
chain: ENFNTATEESEDPLGEDDFDIFYEVWEKFDPEATQFIKYSALSDFADALPEPLRVAKPNKYQFLVMDLPMVSEDRLHCMDILFAFTARVLGGSDGLDSMKAMMEEKFMEANPLKKLYEPIVTTTKRKEEERGAAIIQKAFRKYMMKVTKGDQGDQNDLENGPHS
notes: range 1605-1768; GST tag cleaved
B1: in the experiment with Calmodulin (CaM) [1], the binding result is “no binding”.

B2: CTNav1.9FL (other)
chain: ENFNTATEESEDPLGEDDFDIFYEVWEKFDPEATQFIKYSALSDFADALPEPLRVAKPNKYQFLVMDLPMVSEDRLHCMDILFAFTARVLGGSDGLDSMKAMMEEKFMEANPLKKLYEPIVTTTKRKEEERGAAIIQKAFRKYMMKVTKGDQGDQNDLENGPHSPLQTLCNGDLSSFGVAKGKVHCD
notes: range 1605-1791; GST tag cleaved
For the molecule B2, the binding result with Calmodulin (CaM) [1] is on record as “no binding”.

B3: Nb26 (VHH)
VHH: QVQLQESGGGSVQAGGSLRLSCVASGRTFSSYAMAWFRQVPGKEREFVGRISRSGGSTMYADSVKGRFDISRDNAKNTVFLQMSSLKPEDTAVYYCAAKAAVILTGIPDYWGQGTQVTVSS
notes: pHEN4 clone, HA-tagged, periplasmic extract; also called family 4
As to B3, in the experiment with Calmodulin (CaM) [2], the binding result is listed as “binds”.

The values above are taken from US20230406919A1 (Johns Hopkins, published 2023).
